These results are taken from PMC11653685, “Crystal structure of Alzheimer's disease phospholipase D3 provides a molecular basis for understanding its normal and pathological functions” (The Febs Journal, 2024).

The data set deals with the molecule itself. Nature of the data set: crystal structure; hPLD3 luminal domain with the hexa-His tag left on; crystals grown at 20 °C in 0.17 M ammonium sulfate, 15% glycerol, 25% PEG 4000; 2.3 Å; two molecules in the asymmetric unit.

B1: human phospholipase D3 (hPLD3) luminal domain, residues N71-L490 (domain or fragment, UniProt Q8IV08 71-490, looked up)
chain: NQRPAPCYDPCEAVLVESIPEGLDFPNASTGNPSTSQAWLGLLAGAHSSLDIASFYWTLTNNDTHTQEPSAQQGEEVLRQLQTLAPKGVNVRIAVSKPSGPQPQADLQALLQSGAQVRMVDMQKLTHGVLHTKFWVVDQTHFYLGSANMDWRSLTQVKELGVVMYNCSCLARDLTKIFEAYWFLGQAGSSIPSTWPRFYDTRYNQETPMEICLNGTPALAYLASAPPPLCPSGRTPDLKALLNVVDNARSFIYVAVMNYLPTLEFSHPHRFWPAIDDGLRRATYERGVKVRLLISCWGHSEPSMRAFLLSLAALRDNHTHSDIQVKLFVVPADEAQARIPYARVNHNKYMVTERATYIGTSNWSGNYFTETAGTSLLVTQNGRGGLRSQLEAIFLRDWDSPYSHDLDTSADSVGNACRLL
modifications: N-linked GlcNAc at N236 and N284 (seen in the electron density)
notes: also called soluble form of the enzyme; source: Expi293 GnTI- cells, transfected, secreted; purified from culture supernatant (HisTrap excel, Superdex 200 SEC); not shown: His6, N-terminal, kept
The term stoichiometry N denotes a count of units in the complex or per binding partner. As for B1, the “stoichiometry N” value is 2.
